This note sets out measurements from PMC2660415.

Test in all cases: SEC; gel filtration on Superdex 200 (AKTA-FPLC) followed by SDS-PAGE; P proteins released from GST by thrombin; P particles form a peak at ~830 kDa and the P dimer at ~69 kDa
A general note: In gel filtration, larger molecules generally elute earlier.

For experiment [1], the target named is Boxer (GI-8) norovirus P domain with C-terminal … peptide, wild type (P particle / P dimer) (norovirus strain Boxer (GI-8)).
The target of experiment [2] is MOH (GII-5) norovirus P domain with C-terminal … peptide, wild type (P particle / P dimer) (norovirus strain MOH (GII-5)).
Experiment [3] deals with Norwalk virus (GI-1) P domain with N-terminal CNGRC peptide, wild type (P particle / P dimer) (Norwalk virus (GI-1)).
For experiment [4], the target named is VA207 (GII-9) norovirus P domain with C-terminal … peptide, wild type (P particle / P dimer) (norovirus strain VA207 (GII-9)).

For the substance “Boxer (GI-8) norovirus P domain with C-terminal … peptide, wild type (P particle / P dimer) (domain or fragment)”, the efficiency of P particle formation in experiment [1] was determined as 80%. Take “MOH (GII-5) norovirus P domain with C-terminal … peptide, wild type (P particle / P dimer) (domain or fragment)”: in experiment [2], the efficiency of P particle formation amounted to 80%. For “Norwalk virus (GI-1) P domain with N-terminal CNGRC peptide, wild type (P particle / P dimer) (domain or fragment)”, in experiment [3], the efficiency of P particle formation stood at 70%. On to “VA207 (GII-9) norovirus P domain with C-terminal … peptide, wild type (P particle / P dimer) (domain or fragment)”, for which, in experiment [4], the efficiency of P particle formation was determined as 90%.
